From the MegaScale stability set (Tsuboyama et al. 2023)

B1: EHEE_rd4_0726 (parent)
chain: DIEITTNGEEDAKRVIKELQKRNLEYHIEVHGNQWVIKVR

Variants of: B1
Assay: folding stability dG (cDNA display proteolysis); higher = more stable
Settings: PBS, room temperature

Point of comparison: DIEITTNGEEDAKRVIKEAQKRNLEYHIEVHGNQWVIKVR, “folding stability dG” value 0.721 kcal/mol. Against it:
- DIEITTNGEEDAQRVIKELQKRNLEYHIEVHGNQWVIKVR — higher, 2.52 kcal/mol
- DIEITTNGEEDAERVIKELQKRNLEYHIEVHGNQWVIKVR — higher, 1.97 kcal/mol
- DIEITTNGEEDAPRVIKELQKRNLEYHIEVHGNQWVIKVR — lower, 0.028 kcal/mol
- DIEITTNGEEDAFRVIKELQKRNLEYHIEVHGNQWVIKVR — higher, 2.58 kcal/mol
- DIEITTNGEEDAKRVIKEIQKRNLEYHIEVHGNQWVIKVR — higher, 1.56 kcal/mol
- DIEITTNGEEDAKRVIKEFQKRNLEYHIEVHGNQWVIKVR — higher, 1.38 kcal/mol
- DIEITTNGEEDAKRVIKECQKRNLEYHIEVHGNQWVIKVR — higher, 1.59 kcal/mol
- DIEITTNGEEDAKRVIKEKQKRNLEYHIEVHGNQWVIKVR — lower, -0.438 kcal/mol
- DIEITTNGEEDAKRVIKEHQKRNLEYHIEVHGNQWVIKVR — lower, -0.603 kcal/mol
- DIEITTNGEEDAKRPIKELQKRNLEYHIEVHGNQWVIKVR — lower, -0.481 kcal/mol
- DIEITTNGEEDAKRHIKELQKRNLEYHIEVHGNQWVIKVR — higher, 1.23 kcal/mol
- DIEITTNGEEDAKRFIKELQKRNLEYHIEVHGNQWVIKVR — higher, 1.97 kcal/mol
- DIEITTNGEEDAKRMIKELQKRNLEYHIEVHGNQWVIKVR — higher, 1.79 kcal/mol
- DIEITTNGEEDAKRAIKELQKRNLEYHIEVHGNQWVIKVR — higher, 1.38 kcal/mol
- DIEITTNGEEDAKRNIKELQKRNLEYHIEVHGNQWVIKVR — lower, 0.1 kcal/mol
- DIEITTNGEEDAKRLIKELQKRNLEYHIEVHGNQWVIKVR — higher, 2.2 kcal/mol
- DIEITTNGEEDAKRRIKELQKRNLEYHIEVHGNQWVIKVR — higher, 0.981 kcal/mol
- DIEITTNGEEDAKRWIKELQKRNLEYHIEVHGNQWVIKVR — higher, 2.41 kcal/mol
- DIEITTNGEEDAKRYIKELQKRNLEYHIEVHGNQWVIKVR — higher, 1.99 kcal/mol
- DIEITTNGEEDAKRCIKELQKRNLEYHIEVHGNQWVIKVR — higher, 2.29 kcal/mol
- DIEITTNGEEDAKREIKELQKRNLEYHIEVHGNQWVIKVR — lower, 0.404 kcal/mol
- DIEITTNGEEDAKRGIKELQKRNLEYHIEVHGNQWVIKVR — lower, -0.213 kcal/mol
- DIEITTNGEEDAKRIIKELQKRNLEYHIEVHGNQWVIKVR — higher, 2.91 kcal/mol
- DIEITTNGEEDAKRQIKELQKRNLEYHIEVHGNQWVIKVR — higher, 0.871 kcal/mol
- DIEITTNGEEDAKRTIKELQKRNLEYHIEVHGNQWVIKVR — higher, 1.27 kcal/mol
- DIEITTNGEEDAKRKIKELQKRNLEYHIEVHGNQWVIKVR — higher, 1.2 kcal/mol
- DIEITTNGEEDAKRSIKELQKRNLEYHIEVHGNQWVIKVR — lower, 0.278 kcal/mol
- DIEITTNGEEDAKDVIKELQKRNLEYHIEVHGNQWVIKVR — higher, 1.59 kcal/mol
- DIEITTNGEEDAKKVIKELQKRNLEYHIEVHGNQWVIKVR — higher, 2.43 kcal/mol
- DIEITTNGEEDAKAVIKELQKRNLEYHIEVHGNQWVIKVR — higher, 2.33 kcal/mol
- DIEITTNGEEDAKCVIKELQKRNLEYHIEVHGNQWVIKVR — higher, 2.57 kcal/mol
- DIEITTNGEEDAKTVIKELQKRNLEYHIEVHGNQWVIKVR — higher, 1.84 kcal/mol
- DIEITTNGEEDAKIVIKELQKRNLEYHIEVHGNQWVIKVR — higher, 2.19 kcal/mol
- DIEITTNGEEDAKLVIKELQKRNLEYHIEVHGNQWVIKVR — higher, 2.3 kcal/mol
- DIEITTNGEEDAKMVIKELQKRNLEYHIEVHGNQWVIKVR — higher, 2.27 kcal/mol
- DIEITTNGEEDAKGVIKELQKRNLEYHIEVHGNQWVIKVR — higher, 1.51 kcal/mol
- DIEITTNGEEDAKVVIKELQKRNLEYHIEVHGNQWVIKVR — higher, 2.04 kcal/mol
- DIEITTNGEEDAKHVIKELQKRNLEYHIEVHGNQWVIKVR — higher, 1.83 kcal/mol
- DIEITTNGEEDAKSVIKELQKRNLEYHIEVHGNQWVIKVR — higher, 1.82 kcal/mol
- DIEITTNGEEDAKEVIKELQKRNLEYHIEVHGNQWVIKVR — higher, 2.04 kcal/mol
- DIEITTNGEEDAKPVIKELQKRNLEYHIEVHGNQWVIKVR — higher, 1.04 kcal/mol
- DIEITTNGEEDAKQVIKELQKRNLEYHIEVHGNQWVIKVR — higher, 2 kcal/mol
- DIEITTNGEEDAKNVIKELQKRNLEYHIEVHGNQWVIKVR — higher, 1.9 kcal/mol
- DIEITTNGEEDAKYVIKELQKRNLEYHIEVHGNQWVIKVR — higher, 2.2 kcal/mol
- DIEITTNGEEDAKWVIKELQKRNLEYHIEVHGNQWVIKVR — higher, 2.85 kcal/mol
- DIEITTNGEEDAKFVIKELQKRNLEYHIEVHGNQWVIKVR — higher, 2.24 kcal/mol
- DIEITTNGEEDAKRVYKELQKRNLEYHIEVHGNQWVIKVR — lower, 0.637 kcal/mol
- DIEITTNGEEDAKRVTKELQKRNLEYHIEVHGNQWVIKVR — higher, 1.25 kcal/mol
- DIEITTNGEEDAKRVAKELQKRNLEYHIEVHGNQWVIKVR — higher, 1.54 kcal/mol
- DIEITTNGEEDAKRVKKELQKRNLEYHIEVHGNQWVIKVR — lower, 0.043 kcal/mol
- DIEITTNGEEDAKRVNKELQKRNLEYHIEVHGNQWVIKVR — lower, -0.729 kcal/mol
- DIEITTNGEEDAKRVSKELQKRNLEYHIEVHGNQWVIKVR — lower, 0.705 kcal/mol
- DIEITTNGEEDAKRVVKELQKRNLEYHIEVHGNQWVIKVR — higher, 1.94 kcal/mol
- DIEITTNGEEDAKRVLKELQKRNLEYHIEVHGNQWVIKVR — higher, 1.83 kcal/mol
- DIEITTNGEEDAKRVFKELQKRNLEYHIEVHGNQWVIKVR — higher, 1.02 kcal/mol
- DIEITTNGEEDAKRVWKELQKRNLEYHIEVHGNQWVIKVR — higher, 0.844 kcal/mol
- DIEITTNGEEDAKRVGKELQKRNLEYHIEVHGNQWVIKVR — higher, 0.895 kcal/mol
- DIEITTNGEEDAKRVQKELQKRNLEYHIEVHGNQWVIKVR — higher, 0.929 kcal/mol
- DIEITTNGEEDAKRVEKELQKRNLEYHIEVHGNQWVIKVR — higher, 1.34 kcal/mol
- DIEITTNGEEDAKRVRKELQKRNLEYHIEVHGNQWVIKVR — lower, 0.31 kcal/mol
- DIEITTNGEEDAKRVHKELQKRNLEYHIEVHGNQWVIKVR — lower, -0.379 kcal/mol
- DIEITTNGEEDAKRVMKELQKRNLEYHIEVHGNQWVIKVR — higher, 2.04 kcal/mol
